Consider seven molecules from patent publication US20260242488A1 (BIOTHEUS, published 2026).

Changes are numbered by the printed parent chain.

B1: anti-c-Met single-arm antibody 221 (antibody, human IgG1, kappa, L234A L235A)
heavy: not shown
light: EIVLTQSPGTLSLSPGERATLSCRASQSVSSSYLAWYQQKPGQAPRLLIYGPSSRATGIPDRFSGSGSGTDFTLTISSLQPADFASYYCQQSYITPYTFGQGTKVEIKRTVAAPSVFIFPPSDEQLKSGTASVVCLLNNFYPREAKVQWKVDNALQSGNSQESVTEQDSKDSTYSLSSTLTLSKADYEKHKVYACEVTHQGLSSPVTKSFNRGEC
chain: not shown
notes: made in Expi-CHO
B2: anti-c-Met single-arm antibody 223 (antibody, human IgG1, kappa, L234A L235A)
heavy: not shown
light: DIQLTQSPSSLSASVGDRVTITCRASQSIITYLNWYQQKPGKAPKLLIYAASSLQSGVPSRFSGSGSGTDFTLNISSLQPEDFATYYCQQANSLPYTFGQGTKVEIKRTVAAPSVFIFPPSDEQLKSGTASVVCLLNNFYPREAKVQWKVDNALQSGNSQESVTEQDSKDSTYSLSSTLTLSKADYEKHKVYACEVTHQGLSSPVTKSFNRGEC
chain: not shown
notes: made in Expi-CHO
B3: anti-c-Met single-arm antibody 22 (antibody, human IgG1, kappa, L234A L235A)
heavy: not shown
light: DIVMTQSPSSVSASVGDRVTITCRASQGISSWLAWYQQKPGKAPKLLIYAASSLQSGVPSKFSGSGSGTEFTLTISSLQPEDFATYFCQQAYGFPLTFGGGTKVEIKRTVAAPSVFIFPPSDEQLKSGTASVVCLLNNFYPREAKVQWKVDNALQSGNSQESVTEQDSKDSTYSLSSTLTLSKADYEKHKVYACEVTHQGLSSPVTKSFNRGEC
chain: not shown
notes: made in Expi-CHO
B4: anti-c-Met single-arm antibody 136 (antibody, human IgG1, kappa, L234A L235A)
heavy: not shown
light: B3 light with A51V, K61R, E70D, Y92N, G93S
chain: not shown
notes: made in Expi-CHO
B5: anti-c-Met single-arm antibody 187 (antibody, human IgG1, kappa, L234A L235A)
heavy: not shown
light: B3 light with K45N, S53N, Q55P, K61R, E70V, F87Y, A91S, Y92N, G93S
chain: not shown
notes: made in Expi-CHO
B6: anti-c-Met single-arm antibody 74 (antibody, human IgG1, kappa, L234A L235A)
heavy: not shown
light: B3 light with S30N, K45N, K61R, S65R, E70D, T72S, Q79H, F87Y, Y92K
chain: not shown
notes: made in Expi-CHO
B7: anti-c-Met single-arm antibody 23 (antibody, human IgG1, kappa, L234A L235A)
heavy: not shown
light: DIVMTQSPSSLSASVGDRVTITCRASQSFSDYLNWYRQKPGKAPKLLLFAASSLQSGVPSRFSGSGSGTDFTLTISSLQPEDFATYYCQQSYSPPYTFGQGTKLEIKRTVAAPSVFIFPPSDEQLKSGTASVVCLLNNFYPREAKVQWKVDNALQSGNSQESVTEQDSKDSTYSLSSTLTLSKADYEKHKVYACEVTHQGLSSPVTKSFNRGEC
chain: not shown
notes: made in Expi-CHO

The target of this assay is monkey c-Met (recombinant protein) (monkey). Put plainly: BLI (ForteBio), antibody on AHQ sensor, monkey c-Met in solution, 1:1 model.
Take B1: the Kd was found to be 63.8 nM, the koff amounted to 0.00192 s⁻¹ and the kon was 30100 M⁻¹ s⁻¹.
In the same order, the values of B2 are 16.2 nM, 0.00109 s⁻¹ and 67300 M⁻¹ s⁻¹.
The corresponding values for B3 are 19 nM, 0.00259 s⁻¹ and 136000 M⁻¹ s⁻¹.
The corresponding values for B4 are 1.16 nM, 0.000426 s⁻¹ and 369000 M⁻¹ s⁻¹.
With B5, the equilibrium dissociation constant (Kd) was determined as 2.92 nM, the koff turned out to be 0.000947 s⁻¹ and the association rate constant (kon) turned out to be 324000 M⁻¹ s⁻¹.
As for B6, the equilibrium dissociation constant (Kd) was 9.7 nM, the koff was determined as 0.0026 s⁻¹ and the association rate constant (kon) turned out to be 269000 M⁻¹ s⁻¹.
In the same order, the values of B7 are 26.5 nM, 0.00151 s⁻¹ and 56900 M⁻¹ s⁻¹.
